Test results reported in patent US20250163168.

Experiment: AC-SINS self-interaction assay; the antibody against itself (N = 2)

Row | Substance | AC-SINS (wavelength of maximum absorbance relative to blank, nm) [nm]
1 | positive control (polyreactivity assays) | 23.5
2 | negative control (polyreactivity assays) | 0
